Molecular target: T1, TtHisRS (histidyl-tRNA synthetase) (Thermus thermophilus HB27 (ATCC …, UniProt P62374 1-421))
T1 sequence: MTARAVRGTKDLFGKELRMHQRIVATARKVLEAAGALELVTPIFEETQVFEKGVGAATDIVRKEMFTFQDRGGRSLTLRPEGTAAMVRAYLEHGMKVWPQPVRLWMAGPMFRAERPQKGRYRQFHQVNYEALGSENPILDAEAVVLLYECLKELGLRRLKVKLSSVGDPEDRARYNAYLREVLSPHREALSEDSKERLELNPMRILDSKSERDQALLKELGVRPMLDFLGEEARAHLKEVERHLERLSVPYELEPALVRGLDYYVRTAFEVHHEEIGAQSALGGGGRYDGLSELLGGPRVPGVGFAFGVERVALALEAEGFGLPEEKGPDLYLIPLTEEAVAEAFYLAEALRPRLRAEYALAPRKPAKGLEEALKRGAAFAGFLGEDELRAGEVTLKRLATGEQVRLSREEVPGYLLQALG
Assay: X-ray crystallography

B1: tRNAHis(GUG) transcript (TttRNAHis) (structured_RNA)
RNA: GGUGAGCGUAGCUCAGCUGGUAGACCACCGGACUGAGAUCCGGGGGUCGUGGGUUCAAGUCCCAUCGCUCACCCCA
B1: binds.

Reference: paper PMC4357726
